Laboratory results taken from article PMC2253824.

Target: TTC4, endogenous in Hela cells (human (endogenous in Hela)) (UniProt O95801)
Experiment: co-IP; SDS-PAGE of the anti-TTC4 immune pellet stained with colloidal coomassie blue; data not shown

HSP70, endogenous in Hela cells, sequence (P11142 whole entry): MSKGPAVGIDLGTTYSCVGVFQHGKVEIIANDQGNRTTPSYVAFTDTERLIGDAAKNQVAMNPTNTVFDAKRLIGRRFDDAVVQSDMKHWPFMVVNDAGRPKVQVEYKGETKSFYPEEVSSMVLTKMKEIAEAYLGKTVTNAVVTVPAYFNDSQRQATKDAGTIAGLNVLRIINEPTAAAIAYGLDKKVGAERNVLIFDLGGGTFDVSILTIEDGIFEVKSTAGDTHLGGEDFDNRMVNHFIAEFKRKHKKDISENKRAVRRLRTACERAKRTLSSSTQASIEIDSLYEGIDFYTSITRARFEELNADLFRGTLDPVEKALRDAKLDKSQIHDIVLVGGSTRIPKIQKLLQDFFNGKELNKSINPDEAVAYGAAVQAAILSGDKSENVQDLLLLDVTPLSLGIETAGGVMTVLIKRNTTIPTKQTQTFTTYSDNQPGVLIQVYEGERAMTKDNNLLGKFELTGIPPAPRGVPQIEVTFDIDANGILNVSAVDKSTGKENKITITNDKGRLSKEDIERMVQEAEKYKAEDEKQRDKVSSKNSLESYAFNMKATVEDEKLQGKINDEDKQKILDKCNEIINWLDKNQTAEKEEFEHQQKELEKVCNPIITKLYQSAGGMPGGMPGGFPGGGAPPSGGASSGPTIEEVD
TTC4, endogenous in Hela cells (human (endogenous in Hela)), sequence (O95801 whole entry): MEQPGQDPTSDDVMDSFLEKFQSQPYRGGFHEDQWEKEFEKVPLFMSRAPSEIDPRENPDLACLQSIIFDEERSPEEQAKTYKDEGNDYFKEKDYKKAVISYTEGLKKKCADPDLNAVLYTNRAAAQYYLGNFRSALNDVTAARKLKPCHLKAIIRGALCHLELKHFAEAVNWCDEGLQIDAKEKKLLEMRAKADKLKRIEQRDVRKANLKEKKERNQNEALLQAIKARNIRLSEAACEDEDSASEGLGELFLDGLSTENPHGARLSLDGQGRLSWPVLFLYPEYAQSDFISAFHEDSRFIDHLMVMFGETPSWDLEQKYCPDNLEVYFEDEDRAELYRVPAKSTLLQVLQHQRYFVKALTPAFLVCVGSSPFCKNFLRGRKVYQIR

With “HSP70, endogenous in Hela cells (from UniProt P11142 1-646) (natural protein)” as the substance, how does the level in the immune pellet (colloidal coomassie) read?
Its level in the immune pellet (colloidal coomassie) is 20%.
